{
  "source": "patent US20240254196A1",
  "key": {"human FcγRI (human) [1]": {"target": "human FcγRI (human) (UniProt P12314)", "sequence (P12314 16-288 limits assumed)": "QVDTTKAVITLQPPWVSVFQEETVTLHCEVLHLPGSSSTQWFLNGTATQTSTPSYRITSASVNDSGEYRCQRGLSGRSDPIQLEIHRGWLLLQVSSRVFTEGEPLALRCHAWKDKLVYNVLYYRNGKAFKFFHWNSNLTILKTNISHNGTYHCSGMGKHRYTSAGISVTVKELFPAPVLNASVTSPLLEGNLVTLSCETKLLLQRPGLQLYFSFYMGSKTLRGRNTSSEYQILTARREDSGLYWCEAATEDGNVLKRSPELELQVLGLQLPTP", "test": "BLI (Octet Red96e), His-tagged human FcγRI on Anti-Penta-HIS biosensor, analyte 10-160 nM as printed on the sheet, 1:1 model [B]"}, "human FcγRI (human) [2]": {"target": "human FcγRI (human) (UniProt P12314)", "test": "BLI, Octet Red96e; His-tagged FcγRI on anti-Penta-HIS sensor, 80-1,280 nM analyte; 1:1 model"}, "human IL-1β (human) [3]": {"target": "human IL-1β (human) (UniProt P01584)", "test": "ELISA, human IL-1β coated at 30 ng/well, detection with anti-human IgG Fc-HRP, OD 450 nm"}, "human FcγRIIIA (human) [4]": {"target": "human FcγRIIIA (human) (UniProt P08637)", "sequence (P08637 17-208 limits assumed)": "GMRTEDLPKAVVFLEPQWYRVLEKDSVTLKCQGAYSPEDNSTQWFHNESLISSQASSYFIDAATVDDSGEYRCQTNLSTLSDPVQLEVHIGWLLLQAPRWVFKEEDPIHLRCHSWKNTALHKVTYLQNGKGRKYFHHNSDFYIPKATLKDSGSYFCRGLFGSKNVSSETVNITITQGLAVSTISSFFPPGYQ", "test": "BLI (Octet Red96e), His-tagged human FcγRIIIA on Anti-Penta-HIS biosensor, analyte 80-1280 nM, 1:1 model [B]"}, "[5]": {"target": "Human FcRn (Homo sapiens) (UniProt P55899)", "sequence (P55899 24-297 limits assumed, chain 1 of 2)": "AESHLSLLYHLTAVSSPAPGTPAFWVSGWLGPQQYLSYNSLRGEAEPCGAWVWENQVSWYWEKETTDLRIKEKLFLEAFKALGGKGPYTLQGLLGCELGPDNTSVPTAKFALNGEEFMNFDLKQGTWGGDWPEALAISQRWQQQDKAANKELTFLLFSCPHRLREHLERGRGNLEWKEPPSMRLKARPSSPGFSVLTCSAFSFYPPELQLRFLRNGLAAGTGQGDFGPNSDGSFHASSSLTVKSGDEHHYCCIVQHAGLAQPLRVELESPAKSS", "sequence (chain, as listed by the source limits assumed, chain 2 of 2)": "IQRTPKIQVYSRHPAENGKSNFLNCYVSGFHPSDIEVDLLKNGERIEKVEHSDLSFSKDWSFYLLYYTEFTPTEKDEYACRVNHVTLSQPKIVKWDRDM", "test": "BLI (Octet Red96e), His-tagged human FcRn on Anti-Penta-HIS biosensor, pH 6.0, analyte 31.25-1000 nM, 1:1 model [A]"}, "human FcγRIIIA (human) [6]": {"target": "human FcγRIIIA (human) (UniProt P08637)", "test": "BLI, Octet Red96e; His-tagged FcγRIIIA on anti-Penta-HIS sensor, 80-1,280 nM analyte; 1:1 model"}, "human IL-1α (human) [7]": {"target": "human IL-1α (human) (UniProt P01583)", "sequence (P01583 113-271 limits assumed)": "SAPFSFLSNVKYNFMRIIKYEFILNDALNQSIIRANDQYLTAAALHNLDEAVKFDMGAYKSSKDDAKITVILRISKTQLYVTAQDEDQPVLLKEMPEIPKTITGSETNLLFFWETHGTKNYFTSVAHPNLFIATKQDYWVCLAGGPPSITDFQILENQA", "test": "cell-based or functional assay"}, "human IL-1β (human) [8]": {"target": "human IL-1β (human) (UniProt P01584)", "test": "cell-based or functional assay"}, "human IL-1α (human) [9]": {"target": "human IL-1α (human) (UniProt P01583)", "test": "SPR, Biacore T200; binder captured by anti-human Fc, cytokine injected; 1:1 Langmuir"}, "mouse IL-1β (mouse)": {"target": "mouse IL-1β (mouse) (UniProt P10749)", "sequence (P10749 118-269 limits assumed)": "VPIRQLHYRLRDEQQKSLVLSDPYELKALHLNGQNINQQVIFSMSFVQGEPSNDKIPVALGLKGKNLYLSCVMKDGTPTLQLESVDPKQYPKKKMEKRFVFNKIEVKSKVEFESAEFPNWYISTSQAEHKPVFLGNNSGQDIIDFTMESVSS", "test": "SPR, Biacore T200; binder captured by anti-human Fc, cytokine injected; 1:1 Langmuir"}, "mouse IL-1α (mouse)": {"target": "mouse IL-1α (mouse) (UniProt P01582)", "sequence (P01582 115-270 limits assumed)": "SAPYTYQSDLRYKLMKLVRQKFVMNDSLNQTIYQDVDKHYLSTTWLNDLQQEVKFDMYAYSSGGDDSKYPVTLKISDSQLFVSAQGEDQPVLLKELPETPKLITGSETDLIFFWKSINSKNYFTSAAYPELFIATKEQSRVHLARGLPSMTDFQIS", "test": "SPR, Biacore T200; binder captured by anti-human Fc, cytokine injected; 1:1 Langmuir"}, "[10]": {"target": "rhesus monkey (Rhesus macaque) IL-1β (rhesus monkey (Rhesus macaque)) (UniProt P48090)", "test": "SPR, Biacore T200; binder captured by anti-human Fc, cytokine injected; 1:1 Langmuir"}, "human IL-1β (human) [11]": {"target": "human IL-1β (human) (UniProt P01584)", "test": "SPR, Biacore T200; binder captured by anti-human Fc, cytokine injected; 1:1 Langmuir"}},
  "data": [
    {"substance": "rilonacept (Fc fusion)", "values": [
      {"measurement": "koff", "setting": "human FcγRI (human) [1]", "value": 0.00209, "unit": "s⁻¹"},
      {"measurement": "kon", "setting": "human FcγRI (human) [1]", "value": 45600, "unit": "M⁻¹ s⁻¹"},
      {"measurement": "Kd", "setting": "human FcγRI (human) [2]", "value": 45.8, "unit": "nM"},
      {"measurement": "EC50", "setting": "human IL-1β (human) [3]", "value": 0.0947, "unit": "nM"},
      {"measurement": "koff", "setting": "human FcγRIIIA (human) [4]", "value": 0.0538, "unit": "s⁻¹"},
      {"measurement": "kon", "setting": "human FcγRIIIA (human) [4]", "value": 59000, "unit": "M⁻¹ s⁻¹"},
      {"measurement": "Kd", "setting": "[5]", "value": 453, "unit": "nM"},
      {"measurement": "koff", "setting": "[5]", "value": 0.0489, "unit": "s⁻¹"},
      {"measurement": "kon", "setting": "[5]", "value": 108000, "unit": "M⁻¹ s⁻¹"},
      {"measurement": "Kd", "setting": "human FcγRIIIA (human) [6]", "value": 913, "unit": "nM"},
      {"measurement": "SEAP secretion, IL-1β reporter HEK 293 cell line, 10 ng/ml human IL-1α", "setting": "human IL-1α (human) [7]", "value": 0.308, "unit": "nM"},
      {"measurement": "EC50 of in vivo neutralisation: inhibition of the rise of serum IL-6 in C57BL/6 mice given human IL-1β (300 ng/kg i.p.) 24 h after s.c. rilonacept", "setting": "human IL-1β (human) [8]", "value": 10.5, "unit": "µg/kg"},
      {"measurement": "IL-1β-mediated IL-6 secretion, A549 cell line, 1 ng/ml IL-1β", "setting": "human IL-1β (human) [8]", "value": 37, "unit": "pM"},
      {"measurement": "SEAP secretion, IL-1β reporter HEK 293 cell line, 10 ng/ml human IL-1β", "setting": "human IL-1β (human) [8]", "value": 0.243, "unit": "nM"},
      {"measurement": "inhibition of SEAP secretion at 4 nM, IL-1β reporter HEK 293 cell line", "setting": "human IL-1β (human) [8]", "value": 99.5, "unit": "%"},
      {"measurement": "inhibitory activity (%) on the IL-1β-induced rise of serum IL-6 in mice, at a 3-fold molar excess over the administered IL-1β", "setting": "human IL-1β (human) [8]", "value": 50, "unit": "%"},
      {"measurement": "Kd", "setting": "human IL-1α (human) [9]", "value": 0.00491, "unit": "nM"},
      {"measurement": "koff", "setting": "human IL-1α (human) [9]", "value": "4.5e-05", "unit": "s⁻¹"},
      {"measurement": "kon", "setting": "human IL-1α (human) [9]", "value": "9.18e+06", "unit": "M⁻¹ s⁻¹"},
      {"measurement": "Kd", "setting": "mouse IL-1β (mouse)", "value": 0.369, "unit": "nM"},
      {"measurement": "koff", "setting": "mouse IL-1β (mouse)", "value": 0.000328, "unit": "s⁻¹"},
      {"measurement": "kon", "setting": "mouse IL-1β (mouse)", "value": 890000, "unit": "M⁻¹ s⁻¹"},
      {"measurement": "Kd", "setting": "mouse IL-1α (mouse)", "value": 0.0383, "unit": "nM"},
      {"measurement": "koff", "setting": "mouse IL-1α (mouse)", "value": 0.000178, "unit": "s⁻¹"},
      {"measurement": "kon", "setting": "mouse IL-1α (mouse)", "value": "4.66e+06", "unit": "M⁻¹ s⁻¹"},
      {"measurement": "Kd", "setting": "[10]", "value": 0.00178, "unit": "nM"},
      {"measurement": "koff", "setting": "[10]", "value": "2.43e-05", "unit": "s⁻¹"},
      {"measurement": "kon", "setting": "[10]", "value": "1.36e+07", "unit": "M⁻¹ s⁻¹"},
      {"measurement": "Kd", "setting": "human IL-1β (human) [11]", "value": 0.00256, "unit": "nM"},
      {"measurement": "koff", "setting": "human IL-1β (human) [11]", "value": "8.67e-05", "unit": "s⁻¹"},
      {"measurement": "kon", "setting": "human IL-1β (human) [11]", "value": "3.39e+07", "unit": "M⁻¹ s⁻¹"}
    ]}
  ]
}
